Entries after “also recorded” stand apart in the source; their conditions may differ. Non-standard residues stand in square brackets, D forms with d. No end group written: not given here. Phe(4-NH2) = Nc1ccc(C[C@H](N)C(=O)O)cc1
What was measured:
[1] = tested on: female C57B1/6 mice treated with 200 mg/kg cytoxan; details: 200 mg/kg cyclophosphamide i.v.
[2] = tested on: mice injected with 150 mg/kg 5FU intravenously (WBC, platelets, hemoglobin); experiment: Effect of angiotensin fragments and ACE inhibitor on recovery after chemotherapy (Example 4); type: in vivo; details: for relative effect on increase in WBC (ranking of active agents): throughout the experimental period
Method: The next study was designed to test the effect of angiotensin peptides and the angiotensin converting enzyme inhibitor, enalapril, on recovery of white blood cells, platelets and hemoglobin after chemotherapy, as well as on granulocyte-macrophage colony forming units (GM-CFU) in the blood and bone marrow.
Female […] mice (4 per group), 6-8 weeks old, were injected with 150 mg/kg 5FU intravenously. Administration of the peptides (AII (100 μg/kg/day), AII(1-7) (10 or 100 μg/kg/day), AII(1-5) (10 or 100 μg/kg/day), and AII(1-6) (100 μg/kg/day)), by subcutaneous injection, or enalapril (30 mg/kg/day) by oral gavage, was begun 2 days after administration of the antineoplastic and continued daily until 28 days after 5FU administration, at which time the mice were euthanized for evaluation of white blood cell numbers, platelets, hemoglobin levels and the number of GM-CFU in the bone marrow and peripheral blood. On days 7, 10, 14 and 21 after 5FU administration, blood was taken under anesthesia from the retro-orbital sinus to assess white blood cell number, platelet number, and hemoglobin levels.
The mice were bled from the retro-orbital sinus at days 7, 10, 14 and 21. The mice were anesthetized with Metofane (an inhaled anesthesia). Approximately 150-200 μl of blood were obtained from the retro-orbital sinus with a heparinzed capillary tube. The blood was then placed in a 1.7 ml microfuge tube containing 10 mM EDTA and held on ice until further processing.
One hundred μl of blood was pipetted into a centrifuge tube, to which 900 μl of distilled water was added. The blood and water were mixed by inversion and allowed incubate at 4° C. for 20 minutes. The tube was then centrifuged at 12000 rpm to precipitate the cellular debri for 20 to 30 minutes at room temperature. Twenty μl of the supernatant from this centrifugation was then added into triplicate wells of a 96 well plate containing 180 μl of distilled water. The optical density, was then read using a microplate reader at […].
Twenty μl of blood was mixed with 200 μl of red blood cell (RBC) lysing solution (0.83% NH4Cl, 10 mM EDTA, 0.5% NaHCO3). The mixture was then incubated for 10 minutes at 4° C. After this incubation, the supernatant was removed and the pellet was resuspended in 100 μl of PBS. To this, 100 μl of 0.04% trypan blue was added. This mixture was vortexed and the number of WBC (baseline was approximately 10^7 cells/ml) was evaluated by hematocytometer under light microscopy and the number: of platelets (baseline was approximately 2.5×10^8 platelets/ml) was evaluated by hematocytometer under phase contrast microscopy.
The blood was harvested by cardiac puncture on day 10 to assess mobilization of myeloid progenitors into the peripheral blood. The femurs and tibia were also collected and the bone marrow was harvested by flushing with PBS containing 2% fetal calf serum. After collection of the blood and bone marrow, the red blood cells were lysed with a hypotonic solution (described above), mixed with 0.04% trypan blue, and the number of nucleated cells assessed by hematocytometer under light microscopy. Aliquots of cells were then resuspended at 1×10^5 cells/ml (bone marrow) or 1×10^6 cells/ml Flood). […]

[3] = tested on: animals given intravenous 5FU (white blood cells, CFU-GM); experiment: Effect of AII on white blood cell mobilization and recovery after 5-fluorouracil (Example 1); type: in vivo, mice; details: AII 10 or 100 μg/kg/day s.c., started day -2, 0 or 2 relative to i.v. 5FU; day 7 or 14; all tissues tested (blood, spleen, thymus, bone marrow)
Method: This study was designed to test the effect of AII on the recovery of white blood cells in lymphoid organs and on the level of granulocyte macrophage precursors (CFU-GM) in the blood (ie: mobilization), spleen (mobilization), and bone marrow (recovery) after intravenous administration of 5-fluorouracil (5FU). […] The number of white blood cells in each of the lymphoid organs, or the number of CFU-GM present in all the organs except the thymus were then assessed.

[4] = tested on: AT2 receptor; details: cited from earlier work
[5] = Tests of AII fragments for effectiveness (method not described); details: test not specified
[6] = tested on: patients with newly diagnosed breast cancer receiving doxorubicin and cyclophosphamide
[7] = filgrastim 5.0 μg/kg/day comparator arm

Question: Which “number of myeloid progenitors (GM-CFU) in the bone marrow after cyclophosphamide” value [1] does the source give for `O=P1(N(CCCl)CCCl)NCCCO1` (stereo not shown) [cyclophosphamide, reference compound] here?
Answer: significantly reduced

Question: Which “relative effect on increase in WBC (ranking of active agents)” value (shortened to “relative effect on increase in WBC”) [2] does the source give for `CCOC(=O)[C@H](CCc1ccccc1)N[C@@H](C)C(=O)N1CCC[C@H]1C(=O)O` [enalapril, reference compound] here?
Answer: least effective

Question: With Asp-Arg-Val-Tyr-Ile (DRVYI) [AII(1-5)] as the molecule, how does the platelets after administration ([2]; after i.v. 5FU) read?
Answer: increase in platelets

Question: With “Asp-Arg-Val-Tyr-Ile-His-Pro-Phe (DRVYIHPF) [AII]” as the molecule, how does the “relative effect on increase in WBC” value [2] read?
Answer: most profound effect

Question: What about the “white blood cell mobilization and/or recovery” value [3] of the same molecule?
Answer: significantly enhanced

Question: For “Asp-Arg-Val-Tyr-Ile-Xaa-Pro-Phe (DRVYI[Phe(4-NH2)]PF) [(p-NH2-Phe)6-AII]”, which “affinity for AT2 relative to other receptor subtype” value [4] is on record?
Answer: 100 times

Question: And the “binding characteristics in the experimental models tested” value [4]?
Answer: comparable’ to AT2 antagonists

Question: Which “relative effect on increase in WBC” value [2] does the source give for DRVYIH [AII(1-6)] here?
Answer: least effective

Question: Which effectiveness in tests [5] does the source give for His-Pro-Phe (HPF) [AII(6-8)] here?
Answer: not to be effective

Question: For Tyr-Ile-His-Pro-Phe (YIHPF) [AII(4-8)], which effectiveness in tests [5] is on record?
Answer: not to be effective; also recorded: ineffective

B1: Filgrastim: recombinant G-CSF (NEUPOGEN, Amgen, Inc.), comparator arm (protein, UniProt P09919 31-207, looked up)
Granulocyte …: TPLGPASSLPQSFLLKCLEQVRKIQGDGAALQEKLVSECATYKLCHPEELVLLGHSLGIPWAPLSSCPSQALQLAGCLSQLHSGLFLYQGLLQALEGISPELGPTLDTLQLDVADFATTIWQQMEELGMAPALQPTQGAMPAFASAFQRRAGGVLVASHLQSFLEVSYRVLRHLAQP
modifications: filgrastim, N-terminal methionine
Question: Which “Alopecia (frequency by treatment group)” value ([6]; chemotherapy patients) does the source give for B1 here?
Answer: 40%

Question: What about the “Anemia (frequency by treatment group)” value ([6]; chemotherapy patients) of the same molecule?
Answer: 60%

Question: What about the “Fatigue (frequency by treatment group)” value ([6]; chemotherapy patients) of the same molecule?
Answer: 80%

Question: And the “Headache (frequency by treatment group)” value ([6]; chemotherapy patients)?
Answer: 60%

Question: What about the “Myalgia/Muscle-skeletal pain (frequency by treatment group)” value ([6]; chemotherapy patients) of the same molecule?
Answer: 60%

Question: What about the “Nausea (frequency by treatment group)” value ([6]; chemotherapy patients) of the same molecule?
Answer: 100%

Question: What about the “Stomatitis (frequency by treatment group)” value ([6]; chemotherapy patients) of the same molecule?
Answer: 60%

Question: And the “Vomiting (frequency by treatment group)” value ([6]; chemotherapy patients)?
Answer: 60%

Question: What about the “Toxicity: ANC < 1000/μl (frequency)” value [6, 7] of the same molecule?
Answer: 40%

Question: What about the “Toxicity: Hgb < 10 gm/dl (frequency)” value [6, 7] of the same molecule?
Answer: 60%

Question: And the “Toxicity: Lymph < 500/μl (frequency)” value [6, 7]?
Answer: 80%

Question: What about the “Toxicity: Platelet < 80 K/μl (frequency)” value [6, 7] of the same molecule?
Answer: 60%

Question: And the “Toxicity: WBC < 2000/μl (frequency)” value [6, 7]?
Answer: 60%

Question: What about the “frequency of grade 3-4 neutropenia” value ([6]; filgrastim compared to AII(1-7)) of the same molecule?
Answer: lower frequency

Question: And the “change in platelet number” value ([6]; patients that received filgrastim, more pronounced in subsequent cycles)?
Answer: time dependent decrease in platelet number

Source: patent US7338938B2, “Methods for treating a patient undergoing chemotherapy” (University of Southern California, priority 1999, dated 2008)
